Laboratory results from patent US20030208037A1 (CYTOVIA, published 2003).
*: point of attachment. TFB = 2,3,4,5-tetrafluorobenzoyl; PFB = pentafluorobenzoyl; Cbz = O=C(OCc1ccccc1)*; R110 = rhodamine 110

Target: T1, recombinant caspase-3 (UniProt P42574 29-277, limits assumed)
T1 sequence (looked up): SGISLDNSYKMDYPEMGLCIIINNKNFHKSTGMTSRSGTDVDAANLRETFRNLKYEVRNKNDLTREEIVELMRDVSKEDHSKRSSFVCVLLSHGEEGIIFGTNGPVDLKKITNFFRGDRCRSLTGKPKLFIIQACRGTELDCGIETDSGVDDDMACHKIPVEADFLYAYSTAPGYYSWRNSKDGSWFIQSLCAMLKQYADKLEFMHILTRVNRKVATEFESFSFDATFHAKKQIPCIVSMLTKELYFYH
Experiment: cell-based or functional assay

Ac-DEVD-{R110-TFB} [N-(Ac-DEVD)-N'-(2,3,4,5-tetrafluorobenzoyl)-R110]
increase in fluorescence on cleavage of the substrate (cell-free enzyme assay, 10 uM substrate, 3 hours at 37 C): ~50 fold

Cbz-DEVD-{R110-PFB} [N-(Z-Asp-Glu-Val-Asp)-N'-pentafluorobenzoyl-Rhodamine 110]
increase in fluorescence on cleavage of the substrate (cell-free enzyme assay): > 10 fold
